Reference: US5587462, “Brain-derived membrane-associated CRF binding proteins” (The Salk Institute For Biological Studies, dated 1996)

T1: human Corticotropin-Releasing Factor (hCRF) (human (same molecule in rat), UniProt P06850, 125I-radiolabeled in the binding, cross-linking and LIRMA assays; immobilized on a solid-phase matrix in the affinity chromatography)
T1 peptide: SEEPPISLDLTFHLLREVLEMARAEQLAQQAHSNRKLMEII


Columns and labels:
[1] = target: 33 kD ovine brain-derived membrane-associated CRF-BP (sheep (ovine)); assay: competition of radiolabeled CRF binding by cold CRF
[2] = target: 35 kD ovine brain-derived membrane-associated CRF-BP (sheep (ovine)); assay: as above
[3] = target: T1, human Corticotropin-Releasing Factor …; assay: binding assay with purified membrane-associated CRF-BP

Row | Molecule | concentration of cold CRF that competes [1] [µM] | concentration of cold CRF that competes [2] [µM] | Kd [3] [nM]
1 | Corticotropin-Releasing Factor (CRF), species not stated at the experiment (peptide) | 1 | 1 | 
2 | 33 kD ovine brain-derived membrane-associated CRF-BP (other) ELEGEPLYRRALRCVDMLSLQGQFTFTADRRQLHCATFFIAEPEEFITIHYDLVSIDCLRGDILQVFDGWILKGEKFPSSQDHPLPTTERYVDFCDSGLSRRSIRSSQNVAMIFFRVHEPGNGFTITVKTEPNLFPCNIISQTPNGRFTLVMPHQHRNCSFSIIYPVAIKISDLTLGHLNGLQLKKSSAGCGGIGDFVELLGGTGLDPSKMLLLADLCYPLRGPAQMKVGCDHTVLRMVSSGKLLNRVTFEYRKLEPYELENPNGNSIQEFCLSTL |  |  | 0.25
3 | 35 kD ovine brain-derived membrane-associated CRF-BP (other) EAVDHDSFPHLAGGASPKRELEGEPLYRRALRCVDMLSLQGQFTFTADRRQLHCATFFIAEPEEFITIHYDLVSIDCLRGDILQVFDGWILKGEKFPSSQDHPLPTTERYVDFCDSGLSRRSIRSSQNVAMIFFRVHEPGNGFTITVKTEPNLFPCNIISQTPNGRFTLVMPHQHRNCSFSIIYPVAIKISDLTLGHLNGLQLKKSSAGCGGIGDFVELLGGTGLDPSKMLLLADLCYPLRGPAQMKVGCDHTVLRMVSSGKLLNRVTFEYRKLEPYELENPNGNSIQEFCLSTL |  |  | 7.5
